Sequences and labels used below:
B1: EsaDc H528A (EsaD residues 450-614, crystallised with EsaG) (domain or fragment)
chain: SPNYTKVEFGEHYARLRPKKLKANIEYTTPTGHIYRTDHKGRIKEVYVDNLSLKDGDRNSHAQRTVGGEDRLPDDDGGALIARMFGGSKDIDNLVAQSKFINRPFKEKGHWYNLEKEWQEFLNSGKEVKNIKMEVKYSGNSQRPTIFKVEYEINGERNIRRILNK
notes: source: E. coli BL21(DE3), purified (nickel column, ion exchange, Superdex 200); not shown: His6-SUMO, N-terminal, cleaved
B2: His-EsaDc-NFL (His-SUMO-tagged EsaD residues 450-503) (domain or fragment)
chain: SPNYTKVEFGEHYARLRPKKLKANIEYTTPTGHIYRTDHKGRIKEVYVDNLSLK
notes: also called His-tagged NFL; source: E. coli, purified; not shown: His-SUMO, N-terminal, kept
B3: NFL (EsaD residues 450-503) (domain or fragment)
chain: B2 chain
notes: 15N-labelled in one of the HSQC samples; The methods call the fragment NTL; also called EsaDc-NFL; NTL; source: E. coli BL21(DE3), purified (nickel column, ion exchange, Superdex 200); not shown: His6-SUMO, N-terminal, cleaved
B4: EsaG (natural protein)
chain: MTFEEKLSKIYNEIANEISSMIPVEWEKVYTMAYIDDGGGEVFFNYTKPGSDDLNYYTNIPKEYNISVQVFDDLWMDLYDLFEELRDLFKEEDLEPWTSCEFDFTREGELKVSFDYIDWINSEFGQIGRQNYYKYRKFGILPETEYEINKVKEIEQYIKELEE
notes: also called antitoxin EsaG; full-length EsaG; source: E. coli BL21(DE3), purified (nickel column, ion exchange, Superdex 200); not shown: His6-SUMO, N-terminal, cleaved

Data set [1] addresses Avi-tagged EsaG, biotinylated (S. aureus) (UniProt Q2G178). The data set can be described thus: BLI; biotinylated Avi-tagged EsaG immobilised on streptavidin biosensors, EsaDc in solution at different concentrations; 300 mM NaCl, 30 mM NaH2PO4, 27 mM KCl, pH 7.2. Background: BLI is a label-free optical method that tracks binding on a fibre tip over time.
Data set [2] deals with the molecule itself. Description: crystal structure; EsaDc-EsaG complex, 2.60 Å; hanging drop, 0.1 M Tris pH 8.5, 12% PEG6000, 0.15 M NaCl, 10% ethylene glycol, 0.5% Tacsimate pH 7.0, 1.0% PEG5000MME.
The target of data set [3] is B4. Description: pull-down; His-SUMO-tagged protein on Ni-NTA beads with untagged protein (0.16 mM : 0.2 mM); 25 mM Tris-HCl pH 8.0, 1 M NaCl, 24 °C, 30 min; Coomassie-stained SDS-PAGE. The following applies: both partners purified.
In data set [4] the target is B4. The data set can be described thus: SEC; gel filtration of purified proteins and their mixtures; column and buffer not told for these runs. The following applies: both partners purified. Background: SEC sorts molecules by how far they enter the pores of the column.
The target of data set [5] is B1. The data set can be described thus: crystal structure; EsaDc-EsaG complex, 2.60 Å; hanging drop, 0.1 M Tris pH 8.5, 12% PEG6000, 0.15 M NaCl, 10% ethylene glycol, 0.5% Tacsimate pH 7.0, 1.0% PEG5000MME. The following applies: both partners purified.

“EsaDc (EsaD residues 450-614, as used in the solution assays) (from UniProt Q2G179 450-614) (domain or fragment)” gave a Kd in data set [1] of 460 nM.

Molecule “EsaDc N562F (from UniProt Q2G179 450-614) (domain or fragment)” returned a Kd in data set [1] of 860 nM. On to “EsaDc Y484A (from UniProt Q2G179 450-614) (domain or fragment)”, for which, in data set [1], the Kd stood at 1670 nM.

As to B1, the binding result in data set [2] is given as “binds”. For the molecule B2, the binding result with EsaG [3] is on record as “binds”. Consider B3, for which the binding result with EsaG [4] is listed as “binds”.

Consider B4, for which, in data set [5], the binding result is on record as “binds”.

What is called Kd is the constant that tells how readily two partners part at equilibrium. High values mean weaker binding, low ones tighter binding.

These data come from PMC9616950, “A toxin-deformation dependent inhibition mechanism in the T7SS toxin-antitoxin system of Gram-positive bacteria” (Nature Communications, 2022).
